Assay: soluble on expression in E. coli; label from the status in PepcDB or PDB records

Sequence | soluble on expression in E. coli
MRPISNLNTSAATYIPPQQLPSSCLETLTLLVQMNNYIKRDADYSTGMAVAPLVPEEVHLLAAAMTTELHRHQFQPVVSANDLQLPEPFTFDVAGFTITFTKTQEHDNTGNLMKIAVSKSGVCTSTNITLELFHSIVTTLMSRSQYGTFDLWSVRPILTDESQNRVHEAARYSPAQQYGREETHFTNNGMREFGNMSPLAWRNDVELQQSCNTSNIPPNAANDDINNTRQTIEDQPEADEPQQYVKLTVDDMRKWAAMDQQARNALQGVSGWCTRNHFNIKNARNYLTDHGLNYAGQVKVNRPHEYAKFTLEHIRQWAALNKHVRKPVGYLEKWCKERNLAPTTARNYLKNDGLTALGELKLTGPQKWVTFTFGDIVQWANMTQEERNSAGGAEKWSKKRGFQWSTARSYLKSSGVTKQGARKLAWLKNSGNMSNPFYLAQPTSRRT | not soluble
MRQGFPYARPGQVIGLFGGSFDPPHAGHVHVTREALKMFGLDRVWWLVTPGNPLKAHGPAPLDRRMEAARAMMRHPRVDVTDIEAHLGTRVTADTIAALRRIYPRVRFVWLMGADNLAQLHRWKDWRQIIETVPVGVLARPGDRISARMSPAARAYAPYRIDGQARHLLGRAEAPAWCFVNVPMVDVSSTRIRAAGGWSAAQQGRGQTGTQDQ | not soluble
MRQSTLHTRLSTGPGGSMRSSIEIFNIRTRKMRVVWQTPELFEAPNWSPDGKYLLLNSEGLLYRLSLAGDPSPEKVDTGFATICNNDHGISPDGALYAISDKVEFGKSAIYLLPSTGGTPRLMTKNLPSYWHGWSPDGKSFTYCGIRDQVFDIYSMDIDSGVETRLTHGEGRNDGPDYSPDGRWIYFNSSRTGQMQIWRVRVDGSSVERITDSAYGDWFPHPSPSGDKVVFVSYDADVFDHPRDLDVRVQLMDMDGGNVETLFDLFGGQGTMNSPNWSPDGDEFAYVRYFPVE | soluble
MRRGGSMGPPSGDPYQSRPSPGGYYYNRSTPGGQPAPSPSHSQQSASSHHPRGVPMSQPIARRSDYRTGSEQMTPRSDHRGPSMGYGNGGSVDQRVDDVTPSYYVEHLATFAVGRQFGLTFPADGIRKLKQMEKNSAIWAQPLILRFRHNAVTVEDDNGELVEQFPLELIEQPTAHVSNDSRETYNNVLLFVVREDRKRMSTPTEMHIFQCIRVSATDVAEDLKNYVQGQFRRVRNGRRTAAPTHLQAQQQQMPFYPPDDASISSETSEMFERDVNTLNRCFDDIERFVARIQSAALAQREIEQQNHRYRTANRRDKKNQQPPDPNGILFMRAQLPLESEFVDILKKFKLSFNLLAKLKNHIHEPNAPELLHFLFTPLAVILEACHWGLGRNVAPTVASPLLSLEARELMQNCLTSHESDIWMSLGEAWRTPPEDWTKPLPPPYRPIFNDGFAPYGVADRAMATPNQIHRGHSAPPEHFRQPPPRERNMVDTLEFDRLTLERERLEFEKAKIMERESRLRHEEKQIEDEKRRMHAEKDLITKETTQPVPPPAAVVTHQPITKRYDPPISISPPPQRNNYSHVKVTVDSDTSPRQQAFIDDIVAKGGKLAVVTYDRGGQNTKELTVHKGEYLEVIFDERNWWECKNMHQRVGYVPHTILSMVPFEQQQYAQQYNVMSSQHNVIQINDGVGKMEVFISKTCNFILITTCNLFCSTTKTAVPDIYRAFVMNDETRQMSGTPCENSRSFLSSNTLSSSPENAPEIPLLENLKFNHNKLYLFHILSPNHHNNSSSTGGYNNGHHQGPGMLPEDAPSYVKERQAQNVYRPPPPPLVSDAGVQVEIRREHVAPPPPPVVIPPPPPPVRTPTMEELLRMQQQQQQKQRKPPVEEPVYQPQPAQRAGLEIWRRNQNPQLIQEVTETVGQHSGDILRPAMQRATRVAINEKSSPEDVTRWLQEKGFSPRVIDLLDGQDGANLFSLSKLHLQQACGRDEGGYLYSQLLVQKKRSGFRTHTGDELKAILNHRRTHVELSNEAAADEPVFTINPIL | not soluble
MRRKETLQETPLTYQELASKILPELHLLAQEAGIEGYKRMKKDQLIMALLERQTQGEGLRLVKGYLEISQDGYGFLTENLHNLESRVAIVSAGLIKQYALRAGDYVVGQARPPRENERYATLLKVEAVNNLDPEAAKNRPRFDELTPQFPDRQIRLETTPDELSTRVIDLLAPIGRGQRGLIVAPPKAGKTTLLKKIANAVLKNEPDIKVIVLLIDERPEEVTDFRESVQGAEVIASTFDEPPQNHIRVAEFVHERAKRIVEEGGHVMILLDSITRLARANNLVTPPTGRTLSGGLDSAALYFPKRFLGAARNIRGGGSLTILATALVETGSRMDDVIFEEFKGTGNMELHLSRRLEERRIFPAIDILKSGTRREELLLGEEVTHKMWLLRKVLADMDPAEAMEMLLARLARTKNNKEFLASLAAR | soluble

Source: the DeepSol protein solubility set
